The record followed here is US20190030060A1.

The target in test [1] is Semaphorin 4D secreted by HNSCC cell lines into conditioned medium (cleaved form, ~120 KDa) (human) (UniProt Q92854). The test can be described thus: cell-based or functional assay.
The target in test [2] is recombinant human Sema4D (sCD100) (Cat #310-29) (Peprotech, Rocky Hill, N.J.) (human) (UniProt Q92854). In words: indirect ELISA, antigen coated on plate, standard curve with recombinant Sema4D, goat anti-mouse IgM-HRP. Background: An ELISA detects its analyte on a solid surface through an enzyme-linked reagent.

Substance “anti-Sema4D antibody (clone 30/CD100) (Cat #610670) (BD Biosciences PharMingen, San Diego, Calif.)” yielded a reduction in the MDSC population (CD33+ CD11b+ HLA-DR-/low) of myeloid cells cultured in HNSCC conditioned medium, flow cytometry, against isotype control mAb in test [1] of 50%.

Take “anti-human CD100 antibody (clone: 133-1C6; Novus Biologicals)”: in test [2], the detection limit was 3.1 ng/mL.
